This series in a line: yeast display, Sf9 membrane polyspecificity reagent, FACS + sequencing; frameworks hold sequencing errors. In outline:
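Using colony PCR, genes from sorted yeast display clones were amplified, then sequenced on MiSeq at 2 × 250 and filtered by CDR length. The clones had been stained with 10% biotinylated, detergent-solubilized Sf9 membrane reagent for 1 hour at 4 °C and sorted by FACS into low and high (top ~1%) gates on anti-HA and streptavidin fluorescence. Polyreactivity labels come from the gate of origin.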
Consider “QVQLVESGGGLVQAGGSLRLSCAASGSTFSGNAMGWYRQAPGKERELVAAISQSGGSTYYADSVKGRFTISRDNAKNTVYLQMNSLKPEDTAVYYCNRLYYFLARRMDSWGQGTQVTVSS”, for which the “polyreactivity (PSR sort gate)” value is reported as “high polyreactivity”.

With “QVQLVESGGGLVQAGGSLRLSCAASGSTFSGYAMGWYRQAPGKARELVAAISWRGVRTYYADSVKGRFTISRDNAKNTVYLQMNSLKPEDTAVSYCAAVRYITKEFSWGQGTQVTVSW”, the “polyreactivity (PSR sort gate)” value was “high polyreactivity”.

With “QVQLVESGGGLVQAGGSLRLSCAASGSTFSGYAMGWYRQAPGKERELVAAISTDDTYYADSVKGRFTISRDNPKNTVYLQKNSLKPEDTAVYYCAADYLGYYGLEEHWGQGTQVTVSS”, the “polyreactivity (PSR sort gate)” value is reported as “high polyreactivity”.

For the sequence “QVQLVESGGGLVQAGGSLRLSCAASGSTFSGYAMGWYRQAPGKERELVAAISWSGGRTYYADSVKGRFTISRDNAKNTVYLQMNSLKPEDTAVYYCAAVRKSAYEYWGQGTQVTVSS”, the “polyreactivity (PSR sort gate)” value is reported as “high polyreactivity”.

On to “QVQLVESGGGLVQAGGSLRLSCAASGSTFSGYAMRWYRPAPGKERELVAAISWSGGSTYYADSVKGRFTISRDNAKNTVYLQMNSLKPEDTSVNYCNALESTIRGYPYDYWGQGTQVTVSS”, for which the “polyreactivity (PSR sort gate)” value is given as “low polyreactivity”.

As to “QVQLVESGGGLVQAGGSLRLSCAASGSTFSHNAMGWYRQAPGKERELVAAISTSGSRTYYADSVKGRFTISRDNAKNSVYLQMNSLKPEDTAVYYCNTVPIYYSGYDYWGQGTQVTVSS”, the “polyreactivity (PSR sort gate)” value is “high polyreactivity”.

In the case of “QVQLVESGGGLVQAGGSLRLSCAASGSTFSHYTMGWSRQAPGKERELVAAINYGGASTYYADSVKGRFTISRDNAKNTVFLHMNSLKPEDTSVYYCAAANRPSEQDNYWGQGTQVTVSS”, the “polyreactivity (PSR sort gate)” value is on record as “low polyreactivity”.

As for “QVQLVESGGGLVQAGGSLRLSCAASGSTFSKNAMGWYREAPGKERELVAAISGSGGSTYYADSVKGRFTISRDNAKKTVYLQMNSLKPEESAVYYCAARYSGRRYGYWGQGTQVTVSS”, the “polyreactivity (PSR sort gate)” value is “high polyreactivity”.

As for “QVQLVESGGGLVQAGGSLRLSCAASGSTFSKNAMGWYRQAPGKERELVASISTDGDSTYYADSVKGRFTISRDNAKNTVYFQMNSLKPEDTAVYYCNVVYYGRTWVPYVWEYDYWGQGTQVTVSS”, the “polyreactivity (PSR sort gate)” value is “low polyreactivity”.

For “QVQLVESGGGLVQAGGSLRLSCAASGSTFSKYAMGWYRQAPGKERELVATISSTGSTNYADSVKGRFTISRDNEKNTVYLQMNSLKPEDTAVYDCNAGRRGRPYYKYYYWGQGTQVTVSS”, the “polyreactivity (PSR sort gate)” value is “high polyreactivity”.

As to “QVQLVESGGGLVQAGGSLRLSCAASGSTFSKYAMGWYRQAPWKESELVASITWSGGSTYYADSVKGRFTISRDNAKNTVYLQMNSLIPEDTAVYYCNVRTIQYNVGRWWEYDYWGQVTQVTVSS”, the “polyreactivity (PSR sort gate)” value is listed as “low polyreactivity”.

In the case of “QVQLVESGGGLVQAGGSLRLSCAASGSTFSLNDMGWYRQAPGKERELVAVISSSTGITYYADSVKGRFTISRDNAKNTVYLQMNSLKPEDTAVYYCNADKWEVYYTRMYYWGQGTQVTVSS”, the “polyreactivity (PSR sort gate)” value is “low polyreactivity”.

In the case of “QVQLVESGGGLVQAGGSLRLSCAASGSTFSLNDRGWYRQAPGKERELVAVISSSTGITYYADSVKGRFTISRDNAKYTVYLQMNSLKPEDTAVYYCNADKWEVYYTRMYYWGQGTQVTVSS”, the “polyreactivity (PSR sort gate)” value is “low polyreactivity”.

For the sequence “QVQLVESGGGLVQAGGSLRLSCAASGSTFSLYAMGWYRQAPGKERELVAAISKRGDDTYYADSVKGRFTISRDNAKNTVYLQMNSLKPEDTAVYYCAAEYAAYEYRYWWYDYWGQGTQVTVSS”, the “polyreactivity (PSR sort gate)” value is “high polyreactivity”.

Consider “QVQLVESGGGLVQAGGSLRLSCAASGSTFSLYAMGWYRQAPGKERELVADINSGGGTYYADSVKGRFTISRDNAKNTVYLQMNSLKPEDTAVYYCTAASSWSYFWYDYWGQGTQVTVSS”, for which the “polyreactivity (PSR sort gate)” value was “high polyreactivity”.

On to “QVQLVESGGGLVQAGGSLRLSCAASGSTFSNNARGWYRQAPGKERELVAAISRSGGSTYYADSVKGRFTISRDNAKNTVYLQMNSLKPEDTAVYYCAAYAPYYRTMDYWGQGTQVTVSS”, for which the “polyreactivity (PSR sort gate)” value is “high polyreactivity”.

As to “QVQLVESGGGLVQAGGSLRLSCAASGSTFSNYAMGWYRQAPGKERELVASISNGGSTNYADSVKGRFTISRDNAKNNVYLQMNSLKPEDTAVYYCNAESKAKYDYWGQGTQVTVSS”, the “polyreactivity (PSR sort gate)” value was “low polyreactivity”.

“QVQLVESGGGLVQAGGSLRLSCAASGSTFSPNAMGWYRQAPGKERELVAAITYRGANTYYADSVKGRFTISRDNEKNTVYLQMNSLKPEDTAVYYCAAEYAYHHVGFGYWGQGTQVTVSS”: the “polyreactivity (PSR sort gate)” value is recorded as “low polyreactivity”.

Regarding “QVQLVESGGGLVQAGGSLRLSCAASGSTFSPYAMGWYRQAPGKERELVANITISGGSTYYADSVKGRFTISRDNAKNTVYLQMNSLKPEDTAVYYCNADSLIRWLFTVVIFDYWGQGTEVTVSS”, the “polyreactivity (PSR sort gate)” value is listed as “low polyreactivity”.

Regarding “QVQLVESGGGLVQAGGSLRLSCAASGSTFSQNAMGWYRQAPGKERELVAAITSGGITYYADSVKGRFTISRDNAKNTVYLQMNSLKPEDTAVYYCAADFWPSGRGVAFDYWGQGTQVTVSS”, the “polyreactivity (PSR sort gate)” value is listed as “low polyreactivity”.

For the sequence “QVQLVESGGGLVQAGGSLRLSCAASGSTFSQYAMGWYRQAPWKERELVAAITSTGGSTYYADSVKGRFTISRDNAKNTVYLQMNSLKPEDTAVYYCYPYIRDPKYNYWGQATQVTVSS”, the “polyreactivity (PSR sort gate)” value is recorded as “low polyreactivity”.

In the case of “QVQLVESGGGLVQAGGSLRLSCAASGSTFSQYVMGWYRQAPAKERELVAAISSGGSTYYADSVKGRFTISRDNAKNTVYLQMNSLKPEDTAVYYCAAKYDGSYVGLYWYSMNYWGQGTQVTVSS”, the “polyreactivity (PSR sort gate)” value was “low polyreactivity”.

Turning to “QVQLVESGGGLVQAGGSLRLSCAASGSTFSRNAMGWSRQAPGKERELVAAISWRGGRTYYADSVKGRFTISRDNAKNTVYLQMNSLKPEDTAVYYCAAEHKYRYDYWGQGTQVTVSS”, the “polyreactivity (PSR sort gate)” value was “low polyreactivity”.

Turning to “QVQLVESGGGLVQAGGSLRLSCAASGSTFSRNAMGWYRQAPGKERELVAAINYSGGITYYADSVKGRFTISRDNAKNTVYLQMNSLKPADTAVYYCAKRGIGDPGQHPLGFGYWGQGTQVTVSS”, the “polyreactivity (PSR sort gate)” value is recorded as “low polyreactivity”.

On to “QVQLVESGGGLVQAGGSLRLSCAASGSTFSRYAMGWYRQAPGKERELVAAISSNGGRTYYADSVKGRFTISRDNAKNTVYLQMNSLKPEDTAVYYCAAVNYLTMDYWGQGTQVTVSS”, for which the “polyreactivity (PSR sort gate)” value was “high polyreactivity”.

With “QVQLVESGGGLVQAGGSLRLSCAASGSTFSRYAMGWYRQAPGKERELVAAISSRGGSTYYADSVKGRFTISRDNAKNTVYLQMNSLKPEDTAVYYCNALSSYQNHVYPYDYWGQGTQVTVSS”, the “polyreactivity (PSR sort gate)” value is recorded as “high polyreactivity”.

As to “QVQLVESGGGLVQAGGSLRLSCAASGSTFSRYAMGWYRQAPGKERELVAAISTRGGSTRYADSVKGRFTISRDNAKNTVYLQMNSLKPEDTAVYYCAALGQGRTSATSFVDYEYWGQGTQVTVSS”, the “polyreactivity (PSR sort gate)” value is reported as “high polyreactivity”.

On to “QVQLVESGGGLVQAGGSLRLSCAASGSTFSRYAMGWYRQAPGKERELVAAITRSGGSTYYADSVKGRFTISRDNAKNTVYLQMNSLKPEDTAVYYCAASRGRGGYGFDYWGQGTQVTVSS”, for which the “polyreactivity (PSR sort gate)” value was “high polyreactivity”.

Take “QVQLVESGGGLVQAGGSLRLSCAASGSTFSSLIMGCYRQAPGKERELVAAISRSGGRTYYADSVKGRFTISRDNAKNTVYLQMNSLKPEDTAVYYCAADYVSVDRIRYGYWGQGTQVTVSS”: the “polyreactivity (PSR sort gate)” value is given as “high polyreactivity”.

Consider “QVQLVESGGGLVQAGGSLRLSCAASGSTFSSNAMGWYRKAPGKERELVAAISVNGGSTNYADSVKGRFTISRDNAKNTVYLQMNSLKPEDTAVYYCAAEPAKVAFYRGDYWGQGTQVTVSS”, for which the “polyreactivity (PSR sort gate)” value is on record as “low polyreactivity”.

Regarding “QVQLVESGGGLVQAGGSLRLSCAASGSTFSSNAMGWYRQAPGKERELVAAISWSGASTYYADSVKGRFTISRDNAKNTVYLQMNSLKPEDTAVYYCATVWQAKYYGNHRFGYWGQGTQVTVSS”, the “polyreactivity (PSR sort gate)” value was “low polyreactivity”.

Turning to “QVQLVESGGGLVQAGGSLRLSCAASGSTFSSNAMGWYRQAPGKERELVAAITTSGGSTYYADSVKGRFTISRDNAKNTVYLEMNSLKPEDTAVYYCAADLVHASQWSIFLYGYWGQGTQVTVSS”, the “polyreactivity (PSR sort gate)” value is listed as “low polyreactivity”.

Turning to “QVQLVESGGGLVQAGGSLRLSCAASGSTFSSSAMGWYRQAAGKERELVAAITSSGGSPYYADSVKGRLTISRDNAKNTVYLQMNSLKPEDTAVYYCAAADVIFWLYYYWGQGTQLTVSS”, the “polyreactivity (PSR sort gate)” value was “low polyreactivity”.

With “QVQLVESGGGLVQAGGSLRLSCAASGSTFSSYAMGWYRQAPGKEREFVAAINTDGGSTYYADSVKGRFTISRDNAKNTVYLQMNSLKPEDTAVYYCAARYYWPWYSSYDYWGQGTQVTVSS”, the “polyreactivity (PSR sort gate)” value was “low polyreactivity”.

In the case of “QVQLVESGGGLVQAGGSLRLSCAASGSTFSSYAMGWYRQAPGKERELVAAISKHAGSTYYADSVKGRFTISRDNAKNTVYLQMNSLKPEDTAVYYCAKDSSVQAYYGYWYTSTDDYWGQGTQVTVSS”, the “polyreactivity (PSR sort gate)” value is reported as “low polyreactivity”.

For the sequence “QVQLVESGGGLVQAGGSLRLSCAASGSTFSSYAMGWYRQAPGKERELVAAISSRGGRTYYADSVKGRFTISRDNAKNTVYLQMNSLKPEDTAVYYCAVVPFTEHDYWGQGTQVTVSS”, the “polyreactivity (PSR sort gate)” value is “high polyreactivity”.

Regarding “QVQLVESGGGLVQAGGSLRLSCAASGSTFSSYAMGWYRQAPGKERELVAGISWGGSSTDYADSVKGRFTISRDNAKNTVYLQMNSLKPEDTAVYYCARRYRRGWSTLDYWGQGTQVTVSS”, the “polyreactivity (PSR sort gate)” value is “low polyreactivity”.

“QVQLVESGGGLVQAGGSLRLSCAASGSTFSSYTMGWYRQAPGKERELVAAISRSGGRTYYADSVKGRFTISRDNAKNTVYLQMNSLKPEDTAVYYCNAGLGIEYDYWGQGTQVTVSS”: the “polyreactivity (PSR sort gate)” value is given as “low polyreactivity”.

In the case of “QVQLVESGGGLVQAGGSLRLSCAASGSTFSSYVMGWDRQAPGKERELVAAISSIGGSTYYADSVKGRFTISRDNAKNTVYLQMNSQKPEDTAVYYCPAEPPGSTYEGGYWGQGTQVTVSS”, the “polyreactivity (PSR sort gate)” value is reported as “low polyreactivity”.

In the case of “QVQLVESGGGLVQAGGSLRLSCAASGSTFSTNAMGWYRPAPGKERELVAAISRSGGSTYYADSVKGRFTHSRDNEKNTVYLHMNSLKPEDTAVYYCARVSGYRYDYWGQGTQVTVSS”, the “polyreactivity (PSR sort gate)” value is “high polyreactivity”.

For the sequence “QVQLVESGGGLVQAGGSLRLSCAASGSTFSTNAMGWYRQAPGKERELVAAIRWRGGRTYYADSVKGRFTISRDNAKNTVYLQMNSLKPEDTAVYYCAADYSFTGHRYTYGYWGQGTQVTVSS”, the “polyreactivity (PSR sort gate)” value is given as “high polyreactivity”.
